Data published in publication doi:10.1101/2024.05.10.593535, “Single residue changes to the histone core catalyze neofunctionalization and impose fitness trade-offs” (bioRxiv, 2024).

Molecular target: T1, S. pombe 14xHis-Spt6(282-1159) (S. pombe, UniProt Q09915 282-1159)
T1 construct: transcription elongation factor Spt6, S. pombe, truncated version corresponding to residues 282-1159; Held on Ni-NTA resin by the 14xHis tag in the pulldowns; also called PZH_670; source: E. coli BL21(DE3), purified (Ni Sepharose, dialysis)
T1 sequence (looked up): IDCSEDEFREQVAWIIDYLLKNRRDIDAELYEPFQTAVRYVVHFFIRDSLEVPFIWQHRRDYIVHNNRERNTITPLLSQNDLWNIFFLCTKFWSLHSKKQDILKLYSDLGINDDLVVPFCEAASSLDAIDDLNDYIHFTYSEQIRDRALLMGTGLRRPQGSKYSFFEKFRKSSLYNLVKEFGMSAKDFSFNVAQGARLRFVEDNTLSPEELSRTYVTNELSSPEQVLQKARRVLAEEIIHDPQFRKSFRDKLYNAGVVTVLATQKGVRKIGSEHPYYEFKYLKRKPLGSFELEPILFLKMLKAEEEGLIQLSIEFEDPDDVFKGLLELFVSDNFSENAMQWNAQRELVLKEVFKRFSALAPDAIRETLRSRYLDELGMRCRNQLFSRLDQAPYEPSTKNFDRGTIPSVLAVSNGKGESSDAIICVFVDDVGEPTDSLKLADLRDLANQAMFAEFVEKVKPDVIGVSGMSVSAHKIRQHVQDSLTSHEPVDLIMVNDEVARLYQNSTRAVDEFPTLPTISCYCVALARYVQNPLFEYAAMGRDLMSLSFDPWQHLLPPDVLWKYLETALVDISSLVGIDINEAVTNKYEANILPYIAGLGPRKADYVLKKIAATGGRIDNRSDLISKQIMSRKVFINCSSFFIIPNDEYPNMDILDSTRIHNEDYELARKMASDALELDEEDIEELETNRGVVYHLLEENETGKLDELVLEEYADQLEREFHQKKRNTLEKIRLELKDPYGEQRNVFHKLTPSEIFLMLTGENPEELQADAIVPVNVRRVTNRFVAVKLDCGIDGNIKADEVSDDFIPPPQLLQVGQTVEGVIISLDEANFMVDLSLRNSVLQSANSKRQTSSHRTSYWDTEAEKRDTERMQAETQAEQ
Assay: pull-down; 14xHis-Spt6(282-1159) bound to Ni-NTA resin as bait, recombinant histone fusion as prey; 50 mM Tris pH 8, 150 mM NaCl, 2.5 mM DTT, 0.1% tween-20, RT; washing under physiological salt (150 mM NaCl) or stringent (300 mM NaCl) conditions; colloidal Coomassie staining
Conditions: both partners purified

B1: S. pombe Pht1 (H2A.Z), full-length N-terminal GST fusion (natural protein)
chain: not shown
notes: histone H2A.Z (Pht1), S. pombe, full length; also called full-length Pht1
B1: binds.
